The text below walks through data of patent US12678474B2, “Screening of fixed-point coupling sites of cysteine-modified antibody-toxin conjugate (TDC)” (SICHUAN BAILI PHARMACEUTICAL CO. LTD., priority 2017, dated 2026).

Some results are limits rather than exact numbers.

The target in assay [1] is T1, Recombinant EGFRVIII-His*6 antigen (Homo sapiens, UniProt P00533, DELINS30-297G).
T1 construct: His*6
In words: ELISA relative affinity for EGFRvIII. The assay is classed as binding. The conditions noted are these: EGFRvIII-coated plates, A450, read-out: EC50 (nM), mutant antibody affinity. An excerpt:
Insertion Mutation Modification and Parent Antibody 2A1 for EGFRvIII • ELISA was used to compare the relative affinities of 2A1-LC-Cys110ins-mc-vc-PAB-MMAE TDC, 2A1-LC-Cys111ins-mc-vc-PAB-MMAE TDC, 2A1-LC-Cys142ins-mc-vc-PAB-MMAE TDC, 2A1-HC-Cys254ins-mc-vc-PAB-MMAE TDC, 2A1-HC-Cys255ins-mc-vc-PAB-MMAE TDC, 2A1-HC-Cys258ins-mc-vc-PAB-MMAE TDC, 2A1-HC-Cys259ins-mc-vc-PAB-MMAE TDC, 2A1-HC-Cys354ins-mc-vc-PAB-MMAE TDC, 2A1-HC-Cys355ins-mc-vc-PAB-MMAE TDC, 2A1-HC-Cys357ins-mc-vc-PAB-MMAE TDC, 2A1-HC-Cys378ins-mc-vc-PAB-MMAE TDC, 2A1-HC-Cys379ins-mc-vc-PAB-MMAE TDC, 2A1-HC-Cys386ins-mc-vc-PAB-MMAE TDC, 2A1-HC-Cys387ins-mc-vc-PAB-MMAE TDC, 2A1-HC-Cys410ins-mc-vc-PAB-MMAE TDC, and 2A1 for EGFRvIII. The specific process used was as follows:
Recombinant […]-His*6 antigen was used to coat plates; fish skin gelatin was used as a seal; dilution of each insertion mutant antibody was performed separately, up to a maximum concentration 10 μg/ml and a 4-fold gradient dilution was performed for a total of 11 concentrations; HRP-labeled secondary antibodies were used for incubation; TMB was used for development and absorption detection was performed at 450 nm.
A general note: An ELISA detects its analyte on a solid surface through an enzyme-linked reagent.

Assay [2] concerns EGFRwt-overexpressing human skin squamous cell carcinoma cell line A431. In words: MTS cytotoxicity (cell viability) assay, A431. The assay is classed as cell-based. The settings on record: antibodies; 72 hours. As to the method:
(§1) TDC cytotoxic activity was determined via the following experimental procedure: TDC was added to EGFR-overexpressing or […]-expressing human tumor cell culture medium, and cell viability was determined after 72 hours of cell culture. Cell-based in vitro experiments were used to determine cell viability, cytotoxicity and programmed cell death induced by TDC constituted by the present invention.
(§2) In vitro efficacy of antibody-toxin conjugates was determined via a cell proliferation assay. A CellTiter ^96® AqueousOne Solution Cell was Proliferation Assay purchased commercially from Promega Corp. (Madison, WI). CellTiter ^96® Aqueous One Solution Cell Proliferation Assay (a) is a colorimetric method used to detect the number of living cells in cell proliferation and cytotoxicity experiments. The above reagent contains the novel tetrazole compound [3-(4,5-dimethylthiazol-2-yl)-5-(3-carboxymethoxyphenyl)-2-(4-sulfophenyl)-2H-tetrazolium, inner salt; MTS) as well as an electronic coupling agent (phenazine ethosulfate; PES). […] This convenient “single solution” model is an improvement on the first generation of the CellTiter ^96® Aqueous Assay, in which the electronic coupling agent PMS was supplied separately from the MTS solution. MTS (Owen's reagent) is reduced by cellular organisms into a colored formazan product, which can be directly dissolved in culture medium (FIG. 1). This conversion is likely facilitated by NADPH NADH produced by dehydrogenase present in metabolically active cells. For the assay, a small amount of CellTiter ^96® Aqueous One Solution Reagent is added directly to the medium present in the wells of the culture plate, after which incubation is performed for 1 to 4 hours, followed by reading of the absorbance value at 490 nm using a microplate reader.
(§3) The amount of formazan product detected at 490 nm is proportional to the number of viable cells in culture. Because the formazan product of MTS is soluble in tissue culture medium, CellTiter ^96® Aqueous One Solution Assay requires fewer steps than the MTT or INT methods. A431 (EGFR-overexpressing cells) and U87-[…] (an […] mutant stable cell line) were used in the present invention as an investigative system for performing in vitro efficacy assays. In 96-well plates, cells were plated at 6000 cells/well and 24 hours later, antibody spiking was carried out. […] Cell viability was assayed via MTS 72 hours after treatment.

The subject of assay [3] is EFGRvIII-overexpressing human glioma cell line U87-EGFRvIII. In words: MTS cytotoxicity (cell viability) assay, U87-EGFRvIII. Format: cell-based. The conditions noted are these: antibodies; 72 hours; read-out: IC50, U87MG-EGFRvIII (MTS). As to the method: as §1, §2, §3

B1: 2A1-HC-Cys378ins: 2A1 antibody with cysteine inserted at heavy chain position 378 (SEQ ID NO: 36) (antibody)
heavy: DVQLQESGPSLVKPSQSLSLTCTVTGYSITSDFAWNWIRQFPGNKLEWMGYISYSGNTRYNPSLKSRISITRDTSKNQFFLQLNSVTIEDTATYYCVTAGRGFPYWGQGTLVTVSAASTKGPSVFPLAPSSKSTSGGTAALGCLVKDYFPEPVTVSWNSGALTSGVHTFPAVLQSSGLYSLSSVVTVPSSSLGTQTYICNVNHKPSNTKVDKRVEPKSCDKTHTCPPCPAPEFLGGPSVFLFPPKPKDTLMISRTPEVTCVVVDVSHEDPEVKFNWYVDGVEVHNAKTKPREEQYNSTYRVVSVLTVLHQDWLNGKEYKCKVSNKALPAPIEKTISKAKGQPREPQVYTLPPSRDELTKNQVSLTCLVKGFYPSDIAVEWCESNGQPENNYKTTPPVLDSDGSFFLYSKLTVDKSRWQQGNVFSCSVMHEALHNHYTQKSLSLSPG
light: DILMTQSPSSMSVSLGDTVSITCHSSQDINSNIGWLQQRPGKSFKGLIYHGTNLDDEVPSRFSGSGSGADYSLTISSLESEDFADYYCVQYAQFPWTFGGGTKLEIKRTVAAPSVFIFPPSDEQLKSGTASVVCLLNNFYPREAKVQWKVDNALQSGNSQESVTEQDSKDSTYSLSSTLTLSKADYEKHKVYACEVTHQGLSSPVTKSFNRGEC
In general, EC50 refers to the concentration at which the effect is half-maximal. For orientation: IC50 means the midpoint of a concentration-inhibition curve. With B1, in assay [1], the EC50 was 0.0404 nM. In addition, the IC50 in assay [2] and in assay [3] was above 10 µM in each case.

B2: 2A1-HC-Cys387ins: 2A1 antibody with cysteine inserted at heavy chain position 387 (SEQ ID NO: 42) (antibody)
heavy: DVQLQESGPSLVKPSQSLSLTCTVTGYSITSDFAWNWIRQFPGNKLEWMGYISYSGNTRYNPSLKSRISITRDTSKNQFFLQLNSVTIEDTATYYCVTAGRGFPYWGQGTLVTVSAASTKGPSVFPLAPSSKSTSGGTAALGCLVKDYFPEPVTVSWNSGALTSGVHTFPAVLQSSGLYSLSSVVTVPSSSLGTQTYICNVNHKPSNTKVDKRVEPKSCDKTHTCPPCPAPEFLGGPSVFLFPPKPKDTLMISRTPEVTCVVVDVSHEDPEVKFNWYVDGVEVHNAKTKPREEQYNSTYRVVSVLTVLHQDWLNGKEYKCKVSNKALPAPIEKTISKAKGQPREPQVYTLPPSRDELTKNQVSLTCLVKGFYPSDIAVEWESNGQPENNCYKTTPPVLDSDGSFFLYSKLTVDKSRWQQGNVFSCSVMHEALHNHYTQKSLSLSPG
light: DILMTQSPSSMSVSLGDTVSITCHSSQDINSNIGWLQQRPGKSFKGLIYHGTNLDDEVPSRFSGSGSGADYSLTISSLESEDFADYYCVQYAQFPWTFGGGTKLEIKRTVAAPSVFIFPPSDEQLKSGTASVVCLLNNFYPREAKVQWKVDNALQSGNSQESVTEQDSKDSTYSLSSTLTLSKADYEKHKVYACEVTHQGLSSPVTKSFNRGEC
Turning to B2, the EC50 in assay [1] is 0.0452 nM. Moreover, the IC50 in assay [2] and in assay [3] was above 10 µM in each case.

B3: 2A1-HC-Cys410ins: 2A1 antibody with cysteine inserted at heavy chain position 410 (SEQ ID NO: 44) (antibody)
heavy: DVQLQESGPSLVKPSQSLSLTCTVTGYSITSDFAWNWIRQFPGNKLEWMGYISYSGNTRYNPSLKSRISITRDTSKNQFFLQLNSVTIEDTATYYCVTAGRGFPYWGQGTLVTVSAASTKGPSVFPLAPSSKSTSGGTAALGCLVKDYFPEPVTVSWNSGALTSGVHTFPAVLQSSGLYSLSSVVTVPSSSLGTQTYICNVNHKPSNTKVDKRVEPKSCDKTHTCPPCPAPEFLGGPSVFLFPPKPKDTLMISRTPEVTCVVVDVSHEDPEVKFNWYVDGVEVHNAKTKPREEQYNSTYRVVSVLTVLHQDWLNGKEYKCKVSNKALPAPIEKTISKAKGQPREPQVYTLPPSRDELTKNQVSLTCLVKGFYPSDIAVEWESNGQPENNYKTTPPVLDSDGSFFLYSKLTVDCKSRWQQGNVFSCSVMHEALHNHYTQKSLSLSPG
light: DILMTQSPSSMSVSLGDTVSITCHSSQDINSNIGWLQQRPGKSFKGLIYHGTNLDDEVPSRFSGSGSGADYSLTISSLESEDFADYYCVQYAQFPWTFGGGTKLEIKRTVAAPSVFIFPPSDEQLKSGTASVVCLLNNFYPREAKVQWKVDNALQSGNSQESVTEQDSKDSTYSLSSTLTLSKADYEKHKVYACEVTHQGLSSPVTKSFNRGEC
Take B3: the EC50 in assay [1] came out at 0.042 nM. For the same molecule, the IC50 in assay [2] and in assay [3] was above 10 µM throughout.
